Test [1] has as its target human PD1 (amino acids M1-L288 of NP_005009.2 with a 2Q=>E mutation) stably expressed on engineered reporter … (human, UniProt Q15116 25-288). The experiment in a line: cell-based or functional assay.
For test [2], the target named is T1, human PD1 expressed endogenously on YT/STAT5 luc/Cl4 cells (human, UniProt Q15116 25-288).
T1 construct: whole, on cells; also called hPD1; PD1+ cells
The experiment in a line: flow cytometry (FACS) titration on YT/STAT5 luc/CL4 cells with endogenous hPD1, APC anti-human Fc-gamma secondary, MFI_APC. Here is the method: To compare hPD1 binding of αhPD1-IL2Rα-IL2 proteins to their respective parental anti-hPD1 antibodies, YT/STAT5 luc/Cl4 cells expressing endogenous levels of hPD1 were washed twice with FACS wash (PBS+2% FBS) and resuspended at 1×10\hat{ }6 cells/ml in FACS wash. Cells (100 μl/well) were then plated in 96 well U bottom plates. Cells were spun down (1200 RPM, 5 minutes) and resuspended in 100 μl/well of the various antibody dilutions listed in mAb clone IDs. The antibody titrations were prepared starting at 20 μg/ml with a 6-fold dilution using FACS wash. Cells were incubated with the antibodies for 30 minutes at 4° C. The unbound antibodies were then removed by washing the cells twice using FACS wash. The cells were then resuspended in 100 μl/well of 1:200 dilution of APC-anti-human Fcγ secondary antibody. The cells were incubated for 30 minutes at 4° C. The unbound antibodies were then removed by washing the cells twice using FACS wash. The cells were then resuspended in 160 μl/well of FACS wash and run to test binding using BD FACSCanto™ Flow Cytometer.
On the technique in general: Flow cytometry measures light scatter and fluorescence of single cells or particles in a stream.

The target in test [3] is T2, human PD-1 expressed with a C-terminal myc-myc-hexahistidine tag (human).
T2 construct: also called hPD-1.mmH; hPD-1.mmh
Briefly: SPR (Biacore), antibody captured via anti-human Fc, hPD-1.mmH in solution, 25 C. Here is the method: The CM5 Biacore sensor surface was derivatized by amine coupling with a monoclonal mouse anti-human Fc antibody (GE, #BR-1008-39). All Biacore binding studies were performed in a buffer composed of 0.01M HEPES pH 7.4, 0.15M NaCl, 3 mM EDTA, 0.05% v/v Surfactant P20 (HBS-EP running buffer). […] Antibody-reagent association was monitored for 4 or 5 minutes, while dissociation in HBS-EP running buffer was monitored for 10 minutes. […] All binding kinetics experiments were performed at 25° C.
Kinetic association (kₐ) and dissociation (kd) rate constants were determined by fitting the real-time sensorgrams to a 1:1 binding model using Scrubber 2.0c curve fitting software. Binding dissociation equilibrium constants (KD) and dissociative half-lives (t½) were calculated from the kinetic rate constants as: […]
For orientation: Surface plasmon resonance follows binding to a sensor surface in real time, without labels.

human PD1 (amino acids M1-L288 of NP_005009.2 with a 2Q=>E mutation) stably expressed on engineered reporter …, sequence (Q15116 25-288, change not shown): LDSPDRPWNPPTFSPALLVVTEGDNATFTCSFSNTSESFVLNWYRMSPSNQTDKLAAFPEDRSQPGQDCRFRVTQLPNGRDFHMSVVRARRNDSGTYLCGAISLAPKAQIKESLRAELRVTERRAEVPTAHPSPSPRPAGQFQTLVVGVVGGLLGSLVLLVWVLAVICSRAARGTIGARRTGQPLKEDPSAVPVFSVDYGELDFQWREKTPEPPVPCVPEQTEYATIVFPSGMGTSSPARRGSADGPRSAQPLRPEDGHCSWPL
T1 sequence (Q15116 25-288): as the sequence (Q15116 25-288, change not shown) above
T2 sequence (chain, as listed by the source limits assumed): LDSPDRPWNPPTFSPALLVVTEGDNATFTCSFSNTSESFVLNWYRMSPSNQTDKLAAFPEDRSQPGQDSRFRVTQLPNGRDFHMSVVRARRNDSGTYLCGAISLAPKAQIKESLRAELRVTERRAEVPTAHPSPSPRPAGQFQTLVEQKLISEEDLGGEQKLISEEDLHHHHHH

B1: mAb29512 (antibody, V domains shown)
VH: QVQLVQSGTEVRKPGSSVKVSCKTSGVTFNNYAITWVRQAPGQGLEWMGGIIPVFSPPNYAQKFQGRVTITADESTNTAYMELNSLRSDDTAIYFCAREGERGYTYGYDYWGQGTLVTVSS
VL: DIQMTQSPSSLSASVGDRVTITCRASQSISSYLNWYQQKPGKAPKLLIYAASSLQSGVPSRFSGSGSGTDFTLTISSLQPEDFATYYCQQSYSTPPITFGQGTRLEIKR
notes: The full chains are those of H4H29512 (human IgG4 Fc with S108P); also called H4H29512
Turning to B1, the “Fold induction, AP1-Luc PD1 antagonistic assay” value (“Fold induction” for short) in test [1] was 1.29 fold. Besides, the EC50 (in general, the midpoint of the concentration-response curve) in test [2] turned out to be 5.69 nM. Besides, in test [3], the “90 nM or 100 nM hPD-1.mmH Bind (RU)” value turned out to be 124 RU; the Kd (usually the equilibrium constant for the complex coming apart) worked out at 3.1 nM; the koff (in general, the first-order rate constant of dissociation) is 0.000427 s⁻¹; the on-rate constant (kon) – broadly, the rate constant with which the complex forms – stood at 138000 M⁻¹ s⁻¹. The molecule also gave a t1/2 in test [3] of 27.1 min.

B2: REGN2810 (antibody, human IgG4 S228P, kappa, V domains shown)
VH: EVQLLESGGVLVQPGGSLRLSCAASGFTFSNFGMTWVRQAPGKGLEWVSGISGGGRDTYFADSVKGRFTISRDNSKNTLYLQMNSLKGEDTAVYYCVKWGNIYFDYWGQGTLVTVSS
VL: DIQMTQSPSSLSASVGDSITITCRASLSINTFLNWYQQKPGKAPNLLIYAASSLHGGVPSRFSGSGSGTDFTLTIRTLQPEDFATYYCQQSSNTPFTFGPGTVVDFRR
notes: Human IgG4 Fc with the S108P hinge mutation; also called mAb7798; cemiplimab
In the case of B2, in test [1], the “EC50 (M), AP1-Luc PD1 antagonistic assay” value was found to be 3.67e-09 M and the “Fold induction” value turned out to be 19.2 fold. The molecule also displayed an EC50 in test [2] of 0.774 nM. Moreover, in test [3], the “90 nM or 100 nM hPD-1.mmH Bind (RU)” value came out at 88.7 RU, the Kd turned out to be 2.56 nM, the koff was 0.000253 s⁻¹ and the kon stood at 98800 M⁻¹ s⁻¹. Also, the t1/2 in test [3] is 45.7 min.

B3: mAb9048 (antibody, V domains shown)
VH: QVQLVQSGAEVKRPGSSVKVSCKVSGVTFRNFAIIWVRQAPGQGLEWMGGIIPFFSAANYAQSFQGRVTITPDESTSTAFMELASLRSEDTAVYYCAREGERGHTYGFDYWGQGTLVTVSS
VL: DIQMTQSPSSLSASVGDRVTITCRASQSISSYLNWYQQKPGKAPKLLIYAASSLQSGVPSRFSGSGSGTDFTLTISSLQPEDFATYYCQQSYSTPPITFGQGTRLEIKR
notes: The full chains are those of H4H9048 (human IgG4 Fc with S108P); also called H4H9048
In the case of B3, the “Fold induction” value in test [1] was determined as 1.24 fold. This molecule had an EC50 in test [2] of 3.48 nM. In test [3], the “90 nM or 100 nM hPD-1.mmH Bind (RU)” value is 52.7 RU, the Kd is 8.95 nM, the koff was 0.00123 s⁻¹ and the kon was 137000 M⁻¹ s⁻¹. In test [3], this molecule registered a t1/2 of 9.4 min.

The values are drawn from US20220402989A1 (Regeneron, published 2022).
